# US10745461B2, “Pulsed introduction of low-dose RANKL as a therapy for diet-induced atherosclerosis” (Saint Louis University, priority 2015, dated 2020)
# Entries after “also recorded” stand apart in the source; their conditions may differ.
# B1: receptor activator of NF-κB ligand (protein, UniProt O35235 139-316, looked up)
# Tumor necrosis factor ligand …: FSGAPAMMEGSWLDVAQRGKPEAQPFAHLTINAASIPSGSHKVTLSSWYHDRGWAKISNMTLSNGKLRVNQDGFYYLYANICFRHHETSGSVPTDYLQLMVYVVKTSIKIPSSHNLMKGGSTKNWSGNSEFHFYSINVGGFFKLRAGEEISIQVSNPSLLDPDQDATYFGAFKVQDID
# modifications: GST tag
# Columns and labels:
# [1] = test system: FoxP3+ CD8 T-cells (TcREG); test: RANKL dose finding: FoxP3+ CD8 T-cells in bone marrow of FoxP3-GFP reporter mice; type: in vivo; details: two consecutive days, 50 hours after first dose, lowest dose 0.125 mg/kg
# Experimental: FIGS. 1A, 1B and 1C indicate that TcREG are induced by activated osteoclasis. […] In the absence of RANK L treatment, very low level of conversion was observed after three days. […] ZA was administered intravenously one week prior to adoptive transfer of CD8 T-cells.
# It was first determined the dose of RANKL that produced the maximal number FoxP3^+ CD8 T-cells in the bone marrow. RANKL was administered into FoxP3-GFP reporter mice at various doses for two consecutive days. Fifty hours after first dose, the mice were sacrificed and the numbers of CD8 T-cells that were GFP positive cells in the bone marrow were measured. […] The increased levels of FoxP3 in the bone marrow could either be due to recruitment of TcREG to the bone marrow or induction of FoxP3 expression in cells that were FoxP3 negative. To test for induction FACS sorted the GFP negative population of CD8 (Thy 1.2+ that were CD44 negative or naïve) from the spleens and bone marrow to high purity (FIG. 1C first panel) and adoptively transferred them into congenically marked (Thy 1.1) OT-I Rag^−/− mice. […] In the absence of RANKL administration low levels […] CD8 T-cell were detected (FIGS. 1B and C second panel), but RANKL administration (0.125 mg/kg) yielded ˜1% […] Thy 1.2 T-cells (FIGS. 1B and 1C third panel). […]
# ovariectomized mice = test: Pulsed versus continuous (ALZET pump) RANKL in OVX mice; type: in vivo
# Experimental: FIGS. 10A through 10E show the effect of delivering RANKL in pulses as opposed to a continuous exposure leads to its antiresorptive effect. 12 week old mice were treated either as sham-operated or OVX using pumps or pulsed. Two weeks post-surgery ALZET® pumps were implanted in the intraperitoneal cavity that contained either PBS or RANKL as indicated in the plots above. All groups were pulsed with equivalent dose of RANKL (0.125 mg/kg, pulsed twice 24 hrs. apart) or PBS as indicated in the plots. […] In FIG. 10B, Quantification across groups (6 mice/group).
# TNFα and IL17A = test: Once per month low-dose RANKL or Zoledronate: cytokines from peripheral blood cells by multiplexed ELISA; type: in vivo, mice; details: 120 days post-OVX; RANKL 0.125 mg/kg once per month; ZA once 3 weeks post-OVX
# Experimental: To assess the kinetics of a single treatment, C57BL/6J ovariectomized mice were treated with low-dose RANKL (administered twice 24 hrs apart, 2 weeks post-OVX) and then followed by serum CTX assay. […] In FIG. 11B, to assess whether multiple treatments are effective, sham-operated (Sx) or OVX 12-week old C57BL/6J mice were treated with low-dose RANKL (0.125 mg/kg) once per month or once with the bisphosphonate Zoledronate (ZA; 3 weeks post-OVX). 120 days post-OVX peripheral blood obtained by mandible bleeds was treated to remove RBCs (BD Pharmalyse) then 1 to 3×10^6 cells were plated per well in triplicate (6 mice/group). Media was collected after 36 hours of culturing and cytokine levels quantitated by multiplexed ELISA (Millipore).
# [2] = test system: aortic plaque development and bone loss; test: Ovariectomized WT or LDLR-lacking female mice on Western Diet, pulsed low dose RANKL 14 days and 6 weeks post surgery; type: in vivo
# Description: With specific regards to determining an effect on atherosclerosis, ten-week old female mice that were either C57BL/6J (WT) or lacking low-density lipoprotein receptor (LDLR) were randomly assigned to chow (LabDiet 5L0B, containing 5% fat and 0.014% cholesterol, by weight) or a “Western Diet” that was high in fat and cholesterol (Teklad TD96121, containing 21% fat and 1.25% cholesterol). When the mice were 12 weeks old, all animals were surgically operated. Half the mice were ovariectomized (simulating menopause), and the other half had sham surgery. One group of ovariectomized mice on the Western Diet were treated with pulsed low dose RANKL (0.125 mg/kg) 14 days post surgery (14 weeks of age) and 6 weeks post surgery (18 weeks old). All mice were sacrificed at 20 weeks of age, and bone loss and aortic plaque development were analyzed.
molecule,measurement,setting,value
B1,proportion of FoxP3+ CD8 T cells in the bone marrow as a function of RANKL dose,[1],induced the largest proportion of FoxP3^+ CD8 T cells
same,bone resorption,ovariectomized mice; continuous delivery via osmotic pumps,led to increased bone resorption
same,TcREG induction,"ovariectomized mice; continuous exposure by pump, identical dose",did not induce TcREG; also recorded: No TcREG induction is observed
same,Bone volume (BV/TV),ovariectomized mice; delivered by pump,decreased
same,Bone volume (BV/TV),ovariectomized mice; pulsed,restored to levels observed in sham-operated mice
same,TEFF cells,ovariectomized mice; pulsed,decrease in TEFF cells was only observed in mice pulsed with RANKL
same,bone resorption,ovariectomized mice; pulsed,decreased levels of bone resorption were observed
same,TcREG induction,"ovariectomized mice; pulsed, 0.125 mg/kg twice 24 hrs apart",induced TcREG
same,TNFα and IL17A produced by peripheral blood cells (immunosuppression),TNFα and IL17A,immunosuppressive
same,plaque volume,[2]; low dose RANKL treated mice,plaque volume in low dose treated mice was also reduced
same,weight gain,[2]; low dose RANKL vs without treatment,less weight gain
same,inflammation,"[2]; ovariectomized mice, compared to Zolendronate",reduced
same,number of atherosclerotic lesions in the aortic root,"[2]; ovariectomized, western diet",the number of atherosclerotic lesions in the aortic root was reduced
same,osteoporosis,"[2]; ovariectomized, western diet",ameliorate osteoporosis
